Data published in article doi:10.1101/2023.01.17.524398.

Biological target: Aplysia punctata ink toxin (APIT), recombinant (Aplysia punctata)
Assay: MALDI mass spectrometry

With “Aplysia punctata ink toxin (APIT), recombinant (enzyme)” the stoichiometry N was 2.
